# Several values for one entry are separate records, joined by “and”; a condition that tells them apart may be missing. Identical values can stand only once. Like-named read-outs stand apart in the source and are kept apart here.
# B1: SaMscL C-GFP (pet15b-SaMscL-S-TEV-GFP-6xHis) (natural protein, Staphylococcus aureus, UniProt P68805 1-120, looked up)
# chain: MLKEFKEFALKGNVLDLAIAVVMGAAFNKIISSLVENIIMPLIGKIFGSVDFAKEWSFWGIKYGLFIQSVIDFIIIAFALFIFVKIANTLMKKEEAEEEAVVEENVVLLTEIRDLLREKK
# B2: N-His SaMscL (pet15b-10xHis-Thrombin-SaMscL) (natural protein, Staphylococcus aureus, UniProt P68805 1-120, looked up)
# chain: B1 chain
# B3: Full-length SaMscL, cleaved of its C-terminal GFP tag (natural protein, Staphylococcus aureus, UniProt P68805 1-120, looked up)
# chain: B1 chain
# B4: SaMscL CΔ25 C-GFP (pet15b-SaMscL CΔ(96–120)-S-TEV-GFP-6xHis) (domain or fragment)
# chain: MLKEFKEFALKGNVLDLAIAVVMGAAFNKIISSLVENIIMPLIGKIFGSVDFAKEWSFWGIKYGLFIQSVIDFIIIAFALFIFVKIANTLMKKEE
# How the values were obtained:
# Test in all cases: native MS
# [1] = target: AfMscL C-GFP (pet15b-AfMscL-TEV-GFP-6xHis) (Acidithiobacillus ferrooxidans)
# [2] = target: N-His MtMscL (pet15b-10xHis-Thrombin-MtMscL-PG) (Mycobacterium tuberculosis) (UniProt A5U127)
# [3] = target: N-His MtMscL (pet15b-10xHis-Thrombin-MtMscL-PG) (Mycobacterium tuberculosis) (UniProt A5U127); remark: listed apart in the source
# native MS [4] = target: the molecule itself
# native MS [5] = target: the molecule itself; remark: listed apart in the source
# native MS [6] = target: the molecule itself; remark: listed apart in the source
# native MS [7] = target: the molecule itself; remark: listed apart in the source
# native MS [8] = target: the molecule itself; remark: listed apart in the source
molecule,measurement,setting,value
AfMscL C-GFP (pet15b-AfMscL-TEV-GFP-6xHis) (natural protein),stoichiometry N,[1],5
N-His MtMscL (pet15b-10xHis-Thrombin-MtMscL-PG) (from UniProt A5U127 1-151) (natural protein),relative abundance of pentamer,[2],38%
same,relative abundance of tetramer,[2],63%
same,stoichiometry N,[2],4
same,stoichiometry N,[3],5
B1,stoichiometry N,native MS [4],4
same,stoichiometry N,native MS [5],5
B2,stoichiometry N,native MS [5],4 and 3 and 2
same,stoichiometry N,native MS [6],5
B3,stoichiometry N,native MS [7],5 and 4
B4,stoichiometry N,native MS [8],5
same,stoichiometry N,native MS [6],4
